The target of test [1] is rat Jagged 2 (rJAG2) (rat) (UniProt P97607). Put plainly: drawn table 'Kd (nM)' of Fab; method not stated; the legend names the matured antibody as 4D11.
Test [2] has as its target mouse Jagged 1 (mouse). Put plainly: ELISA, ligand-Fc coated (method lists rat Jagged 1-Fc), anti-human IgG Fab-specific HRP.
The target of test [3] is mouse Jagged 1 (mouse). Put plainly: ELISA as for the other curves; sheet and legend say mouse Jagged 1, the method lists rat Jagged 1-Fc as the coated protein.

B1: 4D11 Fab (Fab, V domains shown)
VH: EVQLLESGGGLVQPGGSLRLSCAASGFTFSSYAMSWVRQAPGKGLEWVSSIDPEGRQTYYADSVKGRFTISRDNSKNTLYLQMNSLRAEDTAVYYCAKDIGGRSAFDYWGQGTLVTVSS
VL: DIQMTQSPSSLSASVGDRVTITCRASQSISSYLNWYQQKPGKAPKLLIYAASSLQSGVPSRFSGSGSGTDFTLTISSLQPEDFATYYCQQTVVAPPLFGQGTKVEIKR
In test [1], B1 had a Kd of less than 1 nM.

B2: anti-Jagged 32 IgG (antibody, V domains shown)
VH: EVQLLESGGGLVQPGGSLRLSCAASGFTFSSYAMSWVRQAPGKGLEWVSSIEQMGWQTYYADSVKGRFTISRDNSKNTLYLQMNSLRAEDTAVYYCAKSAAAFDYWGQGTLVTVSS
VL: DIQMTQSPSSLSASVGDRVTITCRASQSISSYLNWYQQKPGKAPKLLIYAASLQSGVPSRFSGSGSGTDFTLTISSLQPEDFATYYCQQTVVAPLTFGQGTKVEIKR
The molecule B2 showed an affinity (ELISA) in test [2] of more than 30 nM. Also, the EC50 (read off the curve) in test [3] came out at 50 nM.

B3: anti-Jagged 13 IgG (antibody, V domains shown)
VH: EVQLLESGGGLVQPGGSLRLSCAASGFTFSSYAMSWVRQAPGKGLEWVSSIETQGPTTLYADSVKGRFTISRDNSKNTLYLQMNSLRAEDTAVYYCAKTSSAFDYWGQGTLVTVSS
VL: DIQMTQSPSSLSASVGDRVTITCRASQSISSYLNWYQQKPGKAPKLLIYASSLQSGVPSRFSGSGSGTDFTLTIGSLQPEDFATYYCQQNVATPLTFGQGTKVEIKR
Regarding B3, the affinity (ELISA) in test [2] was more than 30 nM.

For the origin of these results see patent publication US20190367589A1.
